Assay results: patent US20260167721A1 (ABLEXIS, published 2026)

Experiments:
[1] = target: T1, human CD3 (TCR/CD3 complex on the cell surface) (human, UniProt P07766 23-207; P04234 22-171; P09693 23-182); test: flow cytometry, Pan-T cells, 1 ug/mL
T1 construct: whole, on cells; Native CD3 on human Pan-T cells or Jurkat wild-type cells; also called CD3 on Pan-T cells; CD3 on Jurkat WT cells

[2] = target: T1, human CD3 (TCR/CD3 complex on the cell …); test: flow cytometry, Pan-T cells, 10 ug/mL
[3] = target: T1, human CD3 (TCR/CD3 complex on the cell …); test: flow cytometry, Jurkat WT cells, 1 ug/mL
[4] = target: T1, human CD3 (TCR/CD3 complex on the cell …); test: flow cytometry, Jurkat WT cells, 10 ug/mL
[5] = target: T1, human CD3 (TCR/CD3 complex on the cell …); test: flow cytometry, Jurkat WT gMFI over Jurkat KO gMFI, 1 ug/mL
[6] = target: T1, human CD3 (TCR/CD3 complex on the cell …); test: flow cytometry, Jurkat WT gMFI over Jurkat KO gMFI, 10 ug/mL

T1 sequence (P07766 23-207, chain 1 of 3): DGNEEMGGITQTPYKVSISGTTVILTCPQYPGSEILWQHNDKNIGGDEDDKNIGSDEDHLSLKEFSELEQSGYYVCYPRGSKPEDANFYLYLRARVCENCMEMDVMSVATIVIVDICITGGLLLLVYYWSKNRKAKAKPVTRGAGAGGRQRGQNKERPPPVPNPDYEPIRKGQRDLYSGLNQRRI
T1 sequence (P04234 22-171, chain 2 of 3): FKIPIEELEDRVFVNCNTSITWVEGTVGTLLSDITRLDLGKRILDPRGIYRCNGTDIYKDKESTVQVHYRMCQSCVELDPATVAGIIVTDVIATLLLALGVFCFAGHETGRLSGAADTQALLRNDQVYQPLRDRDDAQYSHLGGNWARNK
T1 sequence (P09693 23-182, chain 3 of 3): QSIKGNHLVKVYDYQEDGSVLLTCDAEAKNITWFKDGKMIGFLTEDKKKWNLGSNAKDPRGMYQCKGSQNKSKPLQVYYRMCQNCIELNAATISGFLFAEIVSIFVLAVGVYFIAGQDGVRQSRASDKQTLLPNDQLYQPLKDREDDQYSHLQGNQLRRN

% Positive [1] [%] | gMFI [1] [gMFI] | % Positive [2] [%] | gMFI [2] [gMFI] | gMFI [3] [gMFI] | gMFI [4] [gMFI] | Jurkat WT/KO (Fold) [5] [fold] | Jurkat WT/KO (Fold) [6] [fold] | Binder
50.2 | 6790 | 99.5 | 43400 | 3180 | 9780 | 1.5 | 4.4 | CD3 × CD33-BspAb76 (bispecific antibody) chain 1: EVQLVESGGGLVKPGGSLRLSCAASGFTFSSYSMNWVRQAPGKCLEWVSSISRRSGYIYYADSVKGRFTLSRDNAKKSLYLQMNSLRAEDTAVYYCARDLNWAFDYWGQGTLVTVSSGGGGSGGGGSGGGGSGGGGSNFMLTQPHSVSESPGKTVTISCTRSSGSIASNYVQWYQQRPGSSPTTVIYEDNHRPSGVPDRFSGSIDSSSNSASLTIAGLKTEDEADYYCQSSDSSNVVFGCGTKLTVLDKTHTCPPCPAPEFEGGPSVFLFPPKPKDTLMISRTPEVTCVVVDVSHEDPEVKFNWYVDGVEVHNAKTKPREEQYNSTYRVVSVLTVLHQDWLNGKEYKCKVSNKALPASIEKTISKAKGQPREPQVYTLPPCREEMTKNQVSLWCLVKGFYPSDIAVEWESNGQPENNYKTTPPVLDSDGSFFLYSKLTVDKSRWQQGNVFSCSVMHEALHNHYTQKSLSLSPGK chain 2: EVQLVQSGAEVKKPGSSVKVSCKASGYTITDSNIHWVRQAPGQSLEWIGYIYPYNGGTDYNQKFKNRATLTVDNPTNTAYMELSSLRSEDTAFYYCVNGNPWLAYWGQGTLVTVSSASTKGPSVFPLAPSSKSTSGGTAALGCLVKDYFPEPVTVSWNSGALTSGVHTFPAVLQSSGLYSLSSVVTVPSSSLGTQTYICNVNHKPSNTKVDKRVEPKSCDKTHTCPPCPAPEFEGGPSVFLFPPKPKDTLMISRTPEVTCVVVDVSHEDPEVKFNWYVDGVEVHNAKTKPREEQYNSTYRVVSVLTVLHQDWLNGKEYKCKVSNKALPASIEKTISKAKGQPREPQVCTLPPSREEMTKNQVSLSCAVKGFYPSDIAVEWESNGQPENNYKTTPPVLDSDGSFFLVSKLTVDKSRWQQGNVFSCSVMHEALHNRFTQKSLSLSPGK chain 3: DIQLTQSPSTLSASVGDRVTITCRASESLDNYGIRFLTWFQQKPGKAPKLLMYAASNQGSGVPSRFSGSGSGTEFTLTISSLQPDDFATYYCQQTKEVPWSFGQGTKVEVKRTVAAPSVFIFPPSDEQLKSGTASVVCLLNNFYPREAKVQWKVDNALQSGNSQESVTEQDSKDSTYSLSSTLTLSKADYEKHKVYACEVTHQGLSSPVTKSFNRGEC
92.5 | 37800 | 99.8 | 188000 | 8960 | 22100 | 3.6 | 8.6 | CD3 × CD33-BspAb77 (bispecific antibody) chain 1: EVQLVESGGGLVKPGGSLRLSCAASGFTFSTYIMNWVRQAPGKCLEWVSSISSSRSYIYYADSVKGRFTISRDNAKNSLYLQMNSLRAEDTAVYYCAREDRYRLFFDYWGQGTLVTVSSGGGGSGGGGSGGGGSGGGGSNFMLTQPHSVSESPGKTVTISCTRSSGSIASNYVQWYQQRPGSSPTTVIYEDNQRPSGVPDRFSGSIDSSSNSASLTISGLKTEDEADYYCQSYDSSNRVFGCGTKLTVLDKTHTCPPCPAPEFEGGPSVFLFPPKPKDTLMISRTPEVTCVVVDVSHEDPEVKFNWYVDGVEVHNAKTKPREEQYNSTYRVVSVLTVLHQDWLNGKEYKCKVSNKALPASIEKTISKAKGQPREPQVYTLPPCREEMTKNQVSLWCLVKGFYPSDIAVEWESNGQPENNYKTTPPVLDSDGSFFLYSKLTVDKSRWQQGNVFSCSVMHEALHNHYTQKSLSLSPGK chain 2: EVQLVQSGAEVKKPGSSVKVSCKASGYTITDSNIHWVRQAPGQSLEWIGYIYPYNGGTDYNQKFKNRATLTVDNPTNTAYMELSSLRSEDTAFYYCVNGNPWLAYWGQGTLVTVSSASTKGPSVFPLAPSSKSTSGGTAALGCLVKDYFPEPVTVSWNSGALTSGVHTFPAVLQSSGLYSLSSVVTVPSSSLGTQTYICNVNHKPSNTKVDKRVEPKSCDKTHTCPPCPAPEFEGGPSVFLFPPKPKDTLMISRTPEVTCVVVDVSHEDPEVKFNWYVDGVEVHNAKTKPREEQYNSTYRVVSVLTVLHQDWLNGKEYKCKVSNKALPASIEKTISKAKGQPREPQVCTLPPSREEMTKNQVSLSCAVKGFYPSDIAVEWESNGQPENNYKTTPPVLDSDGSFFLVSKLTVDKSRWQQGNVFSCSVMHEALHNRFTQKSLSLSPGK chain 3: DIQLTQSPSTLSASVGDRVTITCRASESLDNYGIRFLTWFQQKPGKAPKLLMYAASNQGSGVPSRFSGSGSGTEFTLTISSLQPDDFATYYCQQTKEVPWSFGQGTKVEVKRTVAAPSVFIFPPSDEQLKSGTASVVCLLNNFYPREAKVQWKVDNALQSGNSQESVTEQDSKDSTYSLSSTLTLSKADYEKHKVYACEVTHQGLSSPVTKSFNRGEC
